Data: patent US20050025768A1 (Biogen, published 2005)

T1: human DC-CK (human, UniProt P55774 21-89, limits assumed)
T1 construct: reading it as DC-CK1/CCL18 is mine
T1 sequence (looked up): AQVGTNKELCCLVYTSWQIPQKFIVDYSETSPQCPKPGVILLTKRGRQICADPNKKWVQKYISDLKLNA

T2: human fractalkine (human, UniProt P78423 25-100, limits assumed)
T2 sequence (looked up): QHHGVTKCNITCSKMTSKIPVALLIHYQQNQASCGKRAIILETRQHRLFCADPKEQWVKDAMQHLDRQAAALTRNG

T3: human MCP-2 (human, UniProt P80075 24-99)
T3 construct: also called hMCP-2; huMCP-2
T3 sequence (looked up): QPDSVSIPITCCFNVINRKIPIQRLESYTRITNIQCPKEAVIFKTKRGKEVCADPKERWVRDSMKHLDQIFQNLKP


Experiments:
human IL-8 = biological target: T4, human IL-8 (human, UniProt P10145 28-99, limits assumed); assay: ELISA, purified mAb
T4 construct: also called hIL8
Protocol: (§1) ELISA specificity assays were performed using purified monoclonal antibodies to confirm the binding specificities of the supernatant MCP-specific monoclonal antibodies described above. Antibodies were purified by Protein A affinity column chromatography, according to standard methods known in the art.
(§2) ELISA was performed as previously described in Example 1. Briefly, MaxiSorp 384 well plates were coated with 15-20 μl antigen in PBS. Recombinant purified human antigens included: MCP-1, MCP-2, MCP-3, MCP-4, IL-8, eotaxin, murine MCP-1 (JE), murine MCP-3, murine MCP-5, and rat MCP-1. All antigens, including MCP-3, were immobilized. Plates were washed and purified monoclonal antibody (10 μg/ml) was added to each well and incubated for 1 hour at room temperature. Plates were washed and wells were incubated with 20 μl/well of a 1:25,000 dilution of goat anti-mouse IgG peroxidase conjugate (Jackson Catalog Number 515-036-003). Plates were incubated for 1 hour at room temperature, washed, and 20 μl/well of substrate (TMB, tetramethylbenzidine, Jackson, Catalog Number 515-036-062) was added. Reaction was allowed to proceed and stopped by addition of 20 μl/well of 2M H₂SO₄. Antibodies 1A1 bound specifically to hMCP-1, hMCP-2, hMCP-3, and mMCP-1. Antibodies 11K2, 4N4, 5A 13, 6D21, 6I5, and 7H1 bound specifically to hMCP-1, hMCP-2, hMCP-3, mMCP-1, mMCP-3, and mMCP-5.

human MCP-4 = biological target: T5, human MCP-4 (human, UniProt Q99616 24-98, limits assumed); assay: ELISA, purified mAb
T5 construct: also called hMCP-4
Protocol: as §1, §2

human eotaxin = biological target: T6, human eotaxin (human, UniProt P51671 24-97); assay: ELISA, purified mAb
T6 construct: also called hEotaxin
Protocol: as §1, §2

human Gcp-2 = human Gcp-2 (human, UniProt P80162 38-114, limits assumed); assay: ELISA, hybridoma supernatant
Protocol: (§3) MaxiSorp 384 well plates were coated with 15-20 μl antigen in PBS. Recombinant purified human antigens included: MCP-1, MCP-2, MCP-3, MCP-4, IL-8, eotaxin, fractalkine, Gcp-2, DC-CK (Gcp-2 and DC-CK are also chemokines). Plates were incubated with antigen for 2 hours at 37° C. or overnight at 4° C. Non-specific sites were blocked with 80 μl/well of 1% BSA/PBS for 1 hour at room temperature. Plates were washed and 15 μl of hybridoma supernatant was added to each well and incubated for 1 hour at room temperature. Plates were washed and wells were incubated with 20 μl/well of a 1:25 000 dilution of goat anti-mouse IgG peroxidase conjugate (Jackson Catalog Number 515-036-003). Plates were incubated for 1 hour at room temperature, washed, and 20 μl/well of substrate (TMB, tetramethylbenzidine, Jackson, Catalog Number 515-036-062) was added. Reaction was allowed to proceed and stopped by addition of 20 μl/well of 2M H₂SO₄. Reactive clones were picked for further analysis. Isotyping of hybridoma supernatants was performed by antigen-dependent ELISA. Briefly, wells were coated with 50 μl of human MCP-1 (5 μg/ml) for 1 hour at 37° C. Wells were washed 4 times and blocked with PBS/1% BSA. Isotyping of hybridoma supernatants was then performed using a mouse immunoglobulin screening/isotyping kit (Zymed Laboratories, San Francisco, Calif.) as recommended by the manufacturer.

human DC-CK = biological target: T1, human DC-CK; assay: ELISA, hybridoma supernatant
Protocol: as §3

human fractalkine = biological target: T2, human fractalkine; assay: ELISA, hybridoma supernatant
Protocol: as §3

human MCP-1 = biological target: T7, human MCP-1 (human, UniProt P13500 24-99); assay: KinExA kinetic exclusion assay, in solution
T7 construct: also called hMCP-1; huMCP-1
Protocol: (§4) Polymethylmethacrylate beads activated with NHS were coated with 10 μg recombinant human MCP-1 in 1 ml buffer. The beads were packed into a column in the KinExA instrument for each sample. This packed bead column is able to capture free MCP mAb or Fab flowed through the column. The amount of free mAb or Fab in solution was determined using a secondary goat anti-mouse heavy and light chain IgG-Cy5 conjugate.
(§5) A fixed amount of 11K2 mAb, 1A1 mAb, 11K2 Fab, or 1A1 Fab was incubated with various amounts of human MCP-1, MCP-2 or MCP-3 for three hours. The amount of uncomplexed free antibody remaining in solution was determined by flowing these mixtures over the MCP-1-loaded bead column and labeling with the Cy5 secondary antibody. The fluorescent signal was plotted against the MCP concentration and the affinity was determined using a quadratic curve fit

human MCP-2 [1] = biological target: T3, human MCP-2; assay: KinExA kinetic exclusion assay, in solution
Protocol: as §4, §5

rhesus MCP-1 = biological target: T8, rhesus MCP-1 (rhesus, UniProt P61275 24-99); assay: ELISA, 1 ug/ml synthetic chemokine coated, mAb 10 ug/ml
T8 construct: also called primate MCP-1
Protocol: as §3
(§6) In addition, both 1A1 and 11K2 mAbs recognize primate MCP-1. Plates were coated with 1 μg/ml of chemically synthesized chemokines (corresponding to the cynomolgus and rhesus MCP-1 sequences) and probed with 10 μg/ml of monoclonal antibodies, including MOPC21, 1l K2, 3N10, 1A1, D9, and 1M11, as described above.

cynomolgus MCP-1 = biological target: T9, cynomolgus MCP-1 (cynomolgus, UniProt P61274 24-99); assay: as above
T9 construct: also called primate MCP-1
Protocol: as §3, §6

human MCP-2 [2] = biological target: T3, human MCP-2; assay: KinExA kinetic exclusion assay, in solution; whole mAb (bivalent IgG1), not Fab
Protocol: as §4, §5

human MCP-2 [3] = biological target: T3, human MCP-2; assay: KinExA kinetic exclusion assay, in solution; Fab (monovalent), not whole mAb
Protocol: as §4, §5

| binding result (human IL-8) | binding result (human MCP-4) | binding result (human eotaxin) | binding result (human Gcp-2) | binding result (human DC-CK) | binding result (human fractalkine) | Kd (human MCP-1) | Kd (human MCP-2 [1]) | binding result (rhesus MCP-1) | binding result (cynomolgus MCP-1) | Kd (human MCP-2 [2]) | Kd (human MCP-2 [3]) | Binder |
| --- | --- | --- | --- | --- | --- | --- | --- | --- | --- | --- | --- | --- |
| no binding (tested: 10 ug/ml) | no binding (tested: 10 ug/ml) | no binding (tested: 10 ug/ml) | no binding | no binding | no binding | – | – | – | – | – | – | 7H1 (antibody, IgG1, V domains shown, IgG1; ATCC PTA-3985; also called 7H1.1) VH: EVQLQQSGAELVKAGASVKLSCPASGLNIKDTYMHWVKQRPEQGLEWIGRIDPANGNTKFDPKFQGKATITADTSSNTAYLQLSSLTSEDTAVYYCARGVFGFFDYWGQGTTLTVSS VL: DIQMTQSSSSFSVSLGDRVTITCKATEDIYNRLAWYQQKPGSAPRLLISGATSLETGVPSRFSGSGSGKDYTLSITSLQTEDVATYYCQQFWSAPYTFGGGTKLEIK |
| no binding (tested: 10 ug/ml) | no binding (tested: 10 ug/ml) | no binding (tested: 10 ug/ml) | no binding | no binding | no binding | < 0.0007 nM | – | binds | binds | 0.0012 nM | – | 1A1 (antibody, IgG1, V domains shown, ATCC PTA-3990; also called 1A1.1; 1A1 mAb) VH: EVQLQQSGAELVRSGASVKLSCTASGFNIKDNYMHWVKQRPEQGLEWIGWIDPENGDTEYAPKFQGKATMTADTSSNTAYLQLSSLTSEDTAVYYCNTWAYYGTSYGGFAYWGQGTTVTVSS VL: not shown |
| – | – | – | – | – | – | 0.013 nM | – | – | – | – | 0.32 nM | 1A1 Fab (Fab, V domains shown, Fab of the murine IgG1 mAb; also called Fab fragment of 1A1) VH: EVQLQQSGAELVRSGASVKLSCTASGFNIKDNYMHWVKQRPEQGLEWIGWIDPENGDTEYAPKFQGKATMTADTSSNTAYLQLSSLTSEDTAVYYCNTWAYYGTSYGGFAYWGQGTTVTVSS VL: not shown |

The remaining lines, values behind:

| Binder | binding result (human IL-8) | binding result (human MCP-4) | binding result (human eotaxin) | binding result (human Gcp-2) | binding result (human DC-CK) | binding result (human fractalkine) | Kd (human MCP-1) | Kd (human MCP-2 [1]) | binding result (rhesus MCP-1) | binding result (cynomolgus MCP-1) | Kd (human MCP-2 [2]) | Kd (human MCP-2 [3]) |
| --- | --- | --- | --- | --- | --- | --- | --- | --- | --- | --- | --- | --- |
| 11K2 (antibody, IgG1, V domains shown, ATCC PTA-3987; also called 11K2.1; 11K2 mAb) VH: EVQLQQSGAELVKAGASVKLSCPASGLNIKDTYMHWVKQRPEQGLEWIGRIDPANGNTKFDPKFQGKATITADTSSNTAYLQLSSLTSEDTAVYYCARGVFGFFDYWGQGTTLTVSS VL: DIQMTQSSSSFSVSLGDRVTITCKATEDIYNRLAWYQQKPGSAPRLLISGATSLETGVPSRFSGSGSGKDYTLSITSLQTEDVATYYCQQFWSAPYTFGGGTKLEIK | no binding (tested: 10 ug/ml) | no binding (tested: 10 ug/ml) | no binding (tested: 10 ug/ml) | no binding | no binding | no binding | < 0.0004 nM | 0.018 nM | binds | binds | – | – |
| 5A13 (antibody, IgG1, V domains shown, IgG1; ATCC PTA-3995; also called 5A13.1) VH: EVQLQQSGAELVKAGASVKLSCPASGLNIKDTYMHWVKQRPEQGLEWIGRIDPANGNTKFDPKFQGKATITADTSSNTAYLQLSSLTSEDTAVYYCARGVFGFFDYWGQGTTLTVSS VL: DIQMTQSSSSFSVSLGDRVTITCKATEDIYNRLAWYQQKPGSAPRLLISGATSLETGVPSRFSGSGSGKDYTLSITSLQTEDVATYYCQQFWSAPYTFGGGTKLEIK | no binding (tested: 10 ug/ml) | no binding (tested: 10 ug/ml) | no binding (tested: 10 ug/ml) | no binding | no binding | no binding | – | – | – | – | – | – |
| 11K2 Fab (Fab, V domains shown, Fab of the murine IgG1 mAb; also called Fab fragment of 11K2) VH: EVQLQQSGAELVKAGASVKLSCPASGLNIKDTYMHWVKQRPEQGLEWIGRIDPANGNTKFDPKFQGKATITADTSSNTAYLQLSSLTSEDTAVYYCARGVFGFFDYWGQGTTLTVSS VL: DIQMTQSSSSFSVSLGDRVTITCKATEDIYNRLAWYQQKPGSAPRLLISGATSLETGVPSRFSGSGSGKDYTLSITSLQTEDVATYYCQQFWSAPYTFGGGTKLEIK | – | – | – | – | – | – | 0.011 nM | 0.43 nM | – | – | – | – |
| 4N4 (antibody, IgG1, V domains shown, IgG1; ATCC PTA-3994; also called 4N4.1) VH: EVQLQQSGAELVKAGASVKLSCPASGLNIKDTYMHWVKQRPEQGLEWIGRIDPANGNTKFDPKFQGKATITADTSSNTAYLQLSSLTSEDTAVYYCARGVFGFFDYWGQGTTLTVSS VL: DIQMTQSSSSFSVSLGDRVTITCKATEDIYNRLAWYQQKPGSAPRLLISGATSLETGVPSRFSGSGSGKDYTLSITSLQTEDVATYYCQQFWSAPYTFGGGTKLEIK | no binding (tested: 10 ug/ml) | no binding (tested: 10 ug/ml) | no binding (tested: 10 ug/ml) | no binding | no binding | no binding | – | – | – | – | – | – |
| 6I5 (antibody, IgG1, V domains shown, IgG1; ATCC PTA-3986; also called 615; 6I5.1) VH: EVQLQQSGAELVKAGASVKLSCPASGLNIKDTYMHWVKQRPEQGLEWIGRIDPANGNTKFDPKFQGKATITADTSSNTAYLQLSSLTSEDTAVYYCARGVFGFFDYWGQGTTLTVSS VL: DIQMTQSSSSFSVSLGDRVTITCKATEDIYNRLAWYQQKPGSAPRLLISGATSLETGVPSRFSGSGSGKDYTLSITSLQTEDVATYYCQQFWSAPYTFGGGTKLEIK | no binding (tested: 10 ug/ml) | no binding (tested: 10 ug/ml) | no binding (tested: 10 ug/ml) | no binding | no binding | no binding | – | – | – | – | – | – |
| 6D21 (antibody, IgG1, V domains shown, IgG1; ATCC PTA-3989; also called 6D21.1) VH: EVQLQQSGAELVKAGASVKLSCPASGLNIKDTYMHWVKQRPEQGLEWIGRIDPANGNTKFDPKFQGKATITADTSSNTAYLQLSSLTSEDTAVYYCARGVFGFFDYWGQGTTLTVSS VL: DIQMTQSSSSFSVSLGDRVTITCKATEDIYNRLAWYQQKPGSAPRLLISGATSLETGVPSRFSGSGSGKDYTLSITSLQTEDVATYYCQQFWSAPYTFGGGTKLEIK | no binding (tested: 10 ug/ml) | no binding (tested: 10 ug/ml) | no binding (tested: 10 ug/ml) | no binding | no binding | no binding | – | – | – | – | – | – |
